Data reported in publication PMC13227277, “Targeting CIRP and IL-6R-mediated microglial inflammation to improve outcomes in intracerebral hemorrhage” (Journal of Advanced Research, 2025).

Assays:
microglia = assay: Cytokine mRNA and release in CIRP-stimulated microglia (RT-qPCR, ELISA); assay type: cell-based, mouse
Description: ELISA was used to quantify CIRP, MD2, IL-6, and TNF-α concentrations in blood and cerebrospinal fluid samples. Samples were processed and stored under standardized conditions to preserve protein integrity. Each target protein was measured using commercial ELISA kits, following the manufacturer’s instructions: Mouse CIRBP ELISA Kit (CSB-EL005440MO, CUSABIO), Mouse TNF-α ELISA Kit (EK282, Lianke Bio), Mouse IL-6 ELISA Kit (CSB-E04639m, CUSABIO), and […].
Primary cortical neurons were isolated from embryonic day 16–18 (E16–E18) C57BL/6 mouse embryos as previously described, and cultured in Neurobasal medium supplemented with B27 and GlutaMAX (Gibco).Primary microglial cells were isolated from the cortices of neonatal (day 1) C57BL/6J mice. After disinfection with 75 % ethanol, the skin and skull were removed, and the brains were placed in ice-cold HBSS. The meninges were peeled off, the cortex was collected, and the hippocampus was discarded. Tissues were digested with 0.25 % trypsin at 37 °C for 12 min, centrifuged at 1200 rpm for 5 min, and resuspended in complete medium. The suspension was transferred to a T75 flask with 15 mL of complete medium. […]
To mimic ischemic conditions, neurons at DIV7 were subjected to OGD. […] The supernatants were collected for subsequent CIRP quantification. […]

[1] = target: T1, recombinant human IL-6 receptor alpha (IL-6Rα) (human, UniProt P08887 20-365); assay: SPR; human IL-6Rα immobilised on a CM5 chip; human CIRBP or TCC as analyte; conditions: both partners purified
T1 construct: Interleukin-6 receptor subunit alpha, human; UniProtKB P08887 is printed for the docking; also called rhIL-6Rα; rhIL-6R; source: recombinant
T1 sequence (looked up): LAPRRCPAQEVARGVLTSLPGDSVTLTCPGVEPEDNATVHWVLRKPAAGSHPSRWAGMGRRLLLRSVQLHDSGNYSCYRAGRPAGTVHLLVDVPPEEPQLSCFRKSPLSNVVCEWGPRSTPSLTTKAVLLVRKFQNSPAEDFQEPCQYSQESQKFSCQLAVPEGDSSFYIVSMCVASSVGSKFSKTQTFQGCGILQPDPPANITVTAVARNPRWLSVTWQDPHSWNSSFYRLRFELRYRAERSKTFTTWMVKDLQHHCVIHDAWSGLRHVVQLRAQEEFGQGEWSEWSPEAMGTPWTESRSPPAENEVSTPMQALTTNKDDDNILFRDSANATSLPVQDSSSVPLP

[2] = tested on: IL-6Rα/STAT3 pathway in microglia; assay: IL-6Rα expression and p-STAT3 in CIRP-stimulated microglia; assay type: cell-based, mouse; conditions: CIRP stimulation with or without TCC
Description: Brain tissues were fixed in paraformaldehyde, dehydrated, and sectioned at 30 µm using a microtome (CM1900UV, Leica, Germany). Sections were floated onto glass slides and left overnight at room temperature. For cultured cells, after discarding the medium, cells were washed twice with PBS, fixed with precooled 4 % PFA at 4 °C for 10 min, and washed three times with PBS (10 min each) on a shaker. Cells were permeabilized with 0.3 % Triton X-100 in PBS for 20 min, blocked with 5 % donkey serum for 1 h, and incubated overnight at 4 °C with primary antibodies (Iba-1, Rabbit polyclonal, Wako; NeuN, Millipore; GFAP, CST; MBP, Abcam; SMI32, Millipore). The next day, sections were brought to room temperature, washed three times with PBST (PBS + Tween-20), and incubated with secondary antibodies for 1 h in the dark. After three more PBST washes, samples were mounted with DAPI-containing medium and sealed. Fluorescence was visualized using a DM4000B microscope and images were captured with a Leica TCS SP8 confocal microscope. […]
Brain tissue adjacent to the hemorrhagic striatum was homogenized in lysis buffer with protease inhibitors. […] The supernatant was collected for protein quantification using the BCA method. […]

B1: recombinant human CIRP (cold-inducible RNA-binding protein) (natural protein, UniProt Q14011 1-172, looked up)
chain: MASDEGKLFVGGLSFDTNEQSLEQVFSKYGQISEVVVVKDRETQRSRGFGFVTFENIDDAKDAMMAMNGKSVDGRQIRVDQAGKSSDNRSRGYRGGSAGGRGFFRGGRGRGRGFSRGGGDRGYGGNRFESRSGGYGGSRDYYSSRSQSGGYSDRSSGGSYRDSYDSYATHNE
notes: UniProtKB Q14011 is printed for the docking; also called rhCIRP; human CIRBP; source: recombinant
For B1, the “TNF-α and IL-6 mRNA in microglia” value (microglia; 24-hour CIRP stimulation with or without TCC, RT-qPCR, n = 3–6) was “upregulated the transcription of pro-inflammatory cytokines TNF-α and IL-6 in microglia”, the “TNF-α secretion by microglia” value (microglia; rmCIRP 1 μg/mL, 24 h, ELISA, n = 3) was “the secretion of TNF-α was markedly increased” and the Kd [1] was 4.27 nM. For the same molecule, the “IL-6Rα expression on microglia” value ([2]; immunofluorescence) was “IL-6Rα expression on the microglial membrane significantly increased” and the “p-STAT3 level in microglia” value ([2]; western blot, n = 6) was “increase in the p-STAT3/GAPDH ratio compared to the PBS control group”.
